Data set [1] has as its target H-NS;Tn5 transposase (Escherichia coli;Tn5) (UniProt P0ACF8+Q46731). The data set can be described thus: EMSA. Particulars: 2 nM 32P-DNA, 200 nM transposase (400 nM for ME 8/9), H-NS normally 23-849 nM added simultaneously, no divalent metal, 30 min 37 C, 5% native PAGE; buffer …. (In EMSA bound probe runs differently from free probe, usually more slowly.)
For another data set, the target named is T1, H-NS (Escherichia coli, UniProt P0ACF8 1-137).
T1 sequence: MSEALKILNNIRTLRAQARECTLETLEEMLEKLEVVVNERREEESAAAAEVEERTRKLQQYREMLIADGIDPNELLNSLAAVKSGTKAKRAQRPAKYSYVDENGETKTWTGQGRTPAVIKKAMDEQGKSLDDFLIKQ
The data set is described as follows: EMSA; no appreciable H-NS binding to OE DNA not associated with transposase; no divalent metal; 2 nM 32P-DNA, 200 nM transposase (400 nM for ME 8/9), H-NS normally 23-849 nM added simultaneously, no divalent metal, 30 min 37 C, 5% native PAGE; buffer, salt and pH not given (cited). Particulars: protein: recombinant; chain copies: 2; label: 5' 32P; as printed: 3 nt 5' overhang on strand 2; described as 53 bp duplex; two copies per transpososome.

H-NS;Tn5 transposase (Escherichia coli;Tn5), sequence (Q46731 whole entry, chain 2 of 2, one chain of several): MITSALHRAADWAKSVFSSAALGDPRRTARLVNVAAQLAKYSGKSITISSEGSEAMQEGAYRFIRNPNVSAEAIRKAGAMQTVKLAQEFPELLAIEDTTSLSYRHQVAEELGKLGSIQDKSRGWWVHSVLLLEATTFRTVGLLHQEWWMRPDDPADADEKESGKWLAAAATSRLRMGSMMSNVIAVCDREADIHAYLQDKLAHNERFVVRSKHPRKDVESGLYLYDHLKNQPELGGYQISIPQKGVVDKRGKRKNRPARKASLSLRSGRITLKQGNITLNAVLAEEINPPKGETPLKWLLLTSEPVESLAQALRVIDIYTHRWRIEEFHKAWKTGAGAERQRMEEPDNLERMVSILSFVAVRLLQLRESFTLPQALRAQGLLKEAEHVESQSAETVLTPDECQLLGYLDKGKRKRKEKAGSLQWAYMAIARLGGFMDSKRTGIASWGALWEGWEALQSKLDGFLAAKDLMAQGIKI

One may read the Kd as the concentration at which binding is half-saturated. High values mean weaker binding, low ones tighter binding. For “CCCTGCAGGTCGACTGTCTCTTATACACATCTTGAGTGAGTGAGCATGCA / ACATGCATGCTCACTCACTCAAGATGTGTATAAGAGACAGTCGACCTGCAGGG [WT ME 53-bp transposon end]”, the Kd in data set [1] was determined as 51 nM.
The same measure, in the same setting: the same measure for “CCCTGCAGGTCGACTGACTCTTATACACAAGTTGAGTGAGTGAGCATGCA / ACATGCATGCTCACTCACTCAACTTGTGTATAAGAGTCAGTCGACCTGCAGGG [OE 53-bp transposon end]”: 232 nM.

B1: OE 53-bp transposon end (dsDNA)
DNA 1: CCCTGCAGGTCGACTGACTCTTATACACAAGTTGAGTGAGTGAGCATGCA
DNA 2: ACATGCATGCTCACTCACTCAACTTGTGTATAAGAGTCAGTCGACCTGCAGGG
Take B1: in the data set with H-NS, the binding result is “no binding”.

Source of the values: PMC3347997, “Identification of basepairs within Tn5 termini that are critical sfor H-NS binding to the transpososome and regulation of Tn5 transposition”.
